In the assay the target is human CD44v6 (CD44 splice variant containing the domain v6) on antigen-positive FaDu cells (human) (UniProt P16070). The experiment in a line: flow cytometry (FACS) on FaDu cells, FITC-labeled anti-human IgG detection, on ice.

The record followed here is EP1391213A1.

Chain of UniProt P16070 (P16070 21-742, change not shown): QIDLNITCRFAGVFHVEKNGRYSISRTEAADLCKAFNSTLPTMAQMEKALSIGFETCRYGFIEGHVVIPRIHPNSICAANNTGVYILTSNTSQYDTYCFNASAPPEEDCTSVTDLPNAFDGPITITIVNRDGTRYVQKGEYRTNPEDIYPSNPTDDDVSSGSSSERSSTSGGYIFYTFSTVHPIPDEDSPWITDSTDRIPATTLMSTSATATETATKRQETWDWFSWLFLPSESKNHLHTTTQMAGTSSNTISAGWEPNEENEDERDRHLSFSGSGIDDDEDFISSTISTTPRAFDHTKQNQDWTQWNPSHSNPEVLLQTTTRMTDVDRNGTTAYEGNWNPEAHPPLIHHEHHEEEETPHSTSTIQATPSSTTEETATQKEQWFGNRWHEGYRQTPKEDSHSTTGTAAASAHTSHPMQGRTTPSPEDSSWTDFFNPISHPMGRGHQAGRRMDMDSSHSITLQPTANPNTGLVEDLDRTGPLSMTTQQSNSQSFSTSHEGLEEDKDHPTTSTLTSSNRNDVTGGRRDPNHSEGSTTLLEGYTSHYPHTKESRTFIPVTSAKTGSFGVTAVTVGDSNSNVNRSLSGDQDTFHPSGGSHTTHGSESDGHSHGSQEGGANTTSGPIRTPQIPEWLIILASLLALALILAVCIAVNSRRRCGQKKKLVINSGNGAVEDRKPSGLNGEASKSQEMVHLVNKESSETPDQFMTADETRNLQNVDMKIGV

B1: BIWA 4 (antibody, human IgG1, kappa, V domains shown)
VH: EVQLVESGGGLVKPGGSLRLSCAASGFTFSSYDMSWVRQAPGKGLEWVSTISSGGSYTYYLDSIKGRFTISRDNAKNSLYLQMNSLRAEDTAVYYCARQGLDYWGRGTLVTVSS
VL: EIVLTQSPATLSLSPGERATLSCSASSSINYIYWYQQKPGQAPRLLIYLTSNLASGVPARFSGSGSGTDFTLTISSLEPEDFAVYYCLQWSSNPLTFGGGTKVEIKR
The molecule B1 had a Kd of 1 nM.

B2: BIWI 1 (antibody, human IgG1, kappa, V domains shown)
VH: B1 VH
VL: B1 VL
modifications: maytansinoid DM1 linked by a disulfide bond through the SPP-derived thiopentanoate linker; DM1/MAb ratio 3.1 (average for the whole antibody); attachment residues not stated
The molecule B2 gave an equilibrium dissociation constant (Kd) of 1.8 nM.

Usually Kd stands for the free concentration of one partner at which half of the binding sites on the other are occupied at equilibrium, for simple one-to-one binding. Low values mean higher affinity, high ones lower affinity.
